The chains are these.
B1: Telomeric repeat-binding factor 2, residues 489 to 542; numbered along this chain, Q15554 (parent)
chain: KQKWTVEESEWVKAGVQKYGEGNWAAISKNYPFVNRTAVMIKDRWRTMKRLGMN

± gives the uncertainty stated by the source.

The variants in this series derive from B1. The experiment in a line: abundance fitness (aPCA) (normalised: wild type 0, dead -1); higher = more abundant; growth selection in yeast, the domain comes from the species named. To be noted: Homo sapiens.
In the case of W45G, the abundance fitness is -0.982 ± 0.12.
As for W4L, the figure is -0.41 ± 0.09.
In the case of W4T, the abundance fitness is -0.258 ± 0.3.
As for V39G, the figure is -0.005 ± 0.054; as for V39F, -0.274 ± 0.08; as for V39P, 0.059 ± 0.12.
As for E10D, the figure is -0.486 ± 0.25; as for E10F, -0.255 ± 0.14.
To E10S belongs -0.311 ± 0.12; to N54V, -0.075 ± 0.092; to N54G, 0.344 ± 0.14.
In the case of A38Q, the abundance fitness was -0.15 ± 0.11.
To A38L belongs -0.372 ± 0.08.
To K3V belongs -0.205 ± 0.094; to K3Q, -0.245 ± 0.16; to Q2A, -0.138 ± 0.1.
With Q2P, the abundance fitness was -0.981 ± 0.28.
As for Q2W, the figure is -0.34 ± 0.14.
With T37I, the abundance fitness was -0.689 ± 0.17.
As for F33C, the figure is -0.899 ± 0.29; as for F33W, -0.166 ± 0.054; as for F33S, -0.972 ± 0.2.
As for F33A, the figure is -0.745 ± 0.061.
As for G22P, the figure is -0.846 ± 0.25; as for G22E, -0.461 ± 0.17; as for G22A, -0.286 ± 0.1.
In the case of M53G, the abundance fitness was -0.007 ± 0.058.
As for M53P, the figure is -0.147 ± 0.15.
To P32G belongs -0.429 ± 0.037; to P32I, -0.774 ± 0.069; to P32T, -0.532 ± 0.042.
As for P32H, the figure is -0.574 ± 0.043; as for R36M, -0.693 ± 0.24; as for R36W, -0.95 ± 0.14.
E21W: the abundance fitness was -0.502 ± 0.083.
As for E21Q, the figure is -0.634 ± 0.12; as for S9Y, -0.481 ± 0.15; as for S9L, -0.31 ± 0.091.
With S9C, the abundance fitness is -0.343 ± 0.11.
As for V16G, the figure is -0.504 ± 0.062.
As for V16F, the figure is -0.936 ± 0.44; as for V16Q, -0.398 ± 0.13; as for V16A, -0.505 ± 0.1.
To A25L belongs -0.17 ± 0.065; to A25W, -0.146 ± 0.041; to A25N, 0.015 ± 0.13.
Take A25Q: the abundance fitness was determined as 0.08 ± 0.1.
Regarding A25E, the abundance fitness was found to be 0.074 ± 0.11.
As for R46D, the figure is -0.195 ± 0.13; as for R46L, 0.054 ± 0.049; as for G52N, 0.049 ± 0.12.
G52Y: the abundance fitness is -0.485 ± 0.19.
To G52C belongs -0.087 ± 0.061; to G52Q, -0.201 ± 0.11; to G52E, -0.071 ± 0.1.
To G52P belongs 0.243 ± 0.1.
As for R50E, the figure is 0.052 ± 0.099; as for R50P, -0.176 ± 0.11.
On to W11D, for which the abundance fitness is -0.183 ± 0.13.
To W11N belongs -0.391 ± 0.2; to W11T, -0.12 ± 0.11.
Regarding Q17D, the abundance fitness was -0.273 ± 0.16.
For the variant Q17L, the abundance fitness is -0.014 ± 0.053.
As to Q17K, the abundance fitness is -0.143 ± 0.11.
As for D43S, the figure is -0.204 ± 0.078; as for D43P, -0.942 ± 0.27; as for D43M, -0.368 ± 0.083.
To D43C belongs -0.449 ± 0.091; to D43E, -0.046 ± 0.056; to M40A, -0.015 ± 0.058.
To M40E belongs 0.17 ± 0.086.
As for M40R, the abundance fitness is -0.663 ± 0.07.
As for M40S, the figure is -0.051 ± 0.077.
To N23M belongs -0.385 ± 0.39; to N23L, -0.56 ± 0.14.
To N23P belongs -0.773 ± 0.33; to N23A, -0.298 ± 0.11.
As for N23Y, the abundance fitness was -0.539 ± 0.28.
To N23G belongs -0.61 ± 0.14; to M48A, -0.821 ± 0.17.
To M48D belongs -0.507 ± 0.28; to M48F, -0.688 ± 0.34; to M48V, -0.463 ± 0.077.
To A14Y belongs -0.217 ± 0.29.
On to A14S, for which the abundance fitness was found to be 0.084 ± 0.086.
To A14P belongs -0.306 ± 0.24.
To W24E belongs -0.585 ± 0.16.
To W24I belongs -0.291 ± 0.27; to W24T, -0.705 ± 0.21; to N35F, -1.14 ± 0.26.
On to N35S, for which the abundance fitness is -0.27 ± 0.041.
Take N35K: the abundance fitness was -0.222 ± 0.21.
To N35W belongs -0.588 ± 0.13; to Y19C, -0.528 ± 0.18.
As for Y19P, the figure is -0.083 ± 0.16.
Regarding Y19Q, the abundance fitness was -0.225 ± 0.099.
As for Y19R, the figure is -0.162 ± 0.093; as for K13S, -0.128 ± 0.049.
Turning to K13H, the abundance fitness was -0.13 ± 0.14.
N30P: the abundance fitness was -0.963 ± 0.18.
As for N30T, the figure is -0.338 ± 0.22.
To N30D belongs -0.474 ± 0.18; to L51P, -0.394 ± 0.063; to L51W, -0.05 ± 0.073.
As for L51G, the figure is -0.035 ± 0.052; as for T5S, -0.105 ± 0.056; as for T5Q, -0.502 ± 0.2.
In the case of T5K, the abundance fitness is -0.161 ± 0.17.
To T5P belongs -0.398 ± 0.19; to Y31W, -0.444 ± 0.1.
As for Y31C, the abundance fitness was -0.49 ± 0.16.
To Y31M belongs -0.431 ± 0.1; to Y31S, -0.729 ± 0.069; to Y31R, -0.626 ± 0.11.
As for Y31T, the figure is -0.727 ± 0.051; as for Y31G, -0.499 ± 0.074; as for Y31P, -0.389 ± 0.22.
To G15W belongs -0.284 ± 0.14; to V6D, 0.059 ± 0.12; to V6C, 0.07 ± 0.11.
As for V6I, the abundance fitness was 0.005 ± 0.046.
As for V6Y, the figure is 0.192 ± 0.082; as for V6M, -0.768 ± 0.29.
To V6T belongs -0.115 ± 0.16; to V12Y, -0.855 ± 0.34; to V12G, -0.495 ± 0.063.
As for V12F, the figure is -0.75 ± 0.25.
Turning to E8N, the abundance fitness is -0.707 ± 0.37.
To E8P belongs -0.598 ± 0.12.
With E8V, the abundance fitness is -0.596 ± 0.12.
As for E8Y, the figure is 0.233 ± 0.13; as for E8T, -0.485 ± 0.15.
Turning to E8A, the abundance fitness is -0.381 ± 0.072.
To E8G belongs -0.394 ± 0.099.
Consider E8I, for which the abundance fitness was -0.339 ± 0.099.
To K1D belongs -0.17 ± 0.16; to K1E, -0.323 ± 0.2.
With E7Q, the abundance fitness is -0.075 ± 0.12.
As for K49I, the figure is -0.415 ± 0.16; as for K49C, 0.116 ± 0.086.
To K49P belongs -0.766 ± 0.2.
To V34W belongs -0.366 ± 0.12.
As to V34Q, the abundance fitness was determined as 0.134 ± 0.17.
V34I: the abundance fitness is -0.066 ± 0.093.
As for V34H, the figure is 0.032 ± 0.11; as for V34C, -0.123 ± 0.053.
On to I41N, for which the abundance fitness was -0.945 ± 0.15.
As for I41F, the figure is -0.616 ± 0.096.
As to I41W, the abundance fitness is -1.01 ± 0.34.
To K29Y belongs -0.116 ± 0.16; to K29I, -0.221 ± 0.1.
As for K18F, the figure is -0.477 ± 0.46; as for K18W, -0.956 ± 0.21.
Take K18M: the abundance fitness is -0.254 ± 0.12.
As for K42C, the figure is -0.124 ± 0.12.
To T47F belongs -0.658 ± 0.2; to T47W, -0.276 ± 0.065.
Consider T47N, for which the abundance fitness is -0.281 ± 0.38.
As for T47V, the figure is -0.157 ± 0.074; as for T47Q, 0.042 ± 0.12; as for T47A, 0.059 ± 0.065.
As for T47Y, the figure is 0.015 ± 0.047; as for R44D, -1.03 ± 0.19.
Consider R44Q, for which the abundance fitness was -0.079 ± 0.051.
To R44S belongs -0.508 ± 0.045; to R44Y, -0.218 ± 0.062.
For the variant A26S, the abundance fitness is -0.068 ± 0.053.

For the origin of these results see the Human Domainome abundance scans (Beltran et al. 2025).
